Reference: patent US20020058275A1, “Compositions, kits, and methods for effecting adenine nucleotide modulation of DNA mismatch recognition proteins” (Thomas Jefferson University, priority 1997, published 2002)

Target: T1, IVTT-hMSH4 (Homo sapiens, UniProt O15457)
T1 construct: made in house; host or cells: in vitro transcription/translation, TNT coupled reticulocyte lysate (Promega), insert in pCR 2.1
T1 sequence (O15457 1-936): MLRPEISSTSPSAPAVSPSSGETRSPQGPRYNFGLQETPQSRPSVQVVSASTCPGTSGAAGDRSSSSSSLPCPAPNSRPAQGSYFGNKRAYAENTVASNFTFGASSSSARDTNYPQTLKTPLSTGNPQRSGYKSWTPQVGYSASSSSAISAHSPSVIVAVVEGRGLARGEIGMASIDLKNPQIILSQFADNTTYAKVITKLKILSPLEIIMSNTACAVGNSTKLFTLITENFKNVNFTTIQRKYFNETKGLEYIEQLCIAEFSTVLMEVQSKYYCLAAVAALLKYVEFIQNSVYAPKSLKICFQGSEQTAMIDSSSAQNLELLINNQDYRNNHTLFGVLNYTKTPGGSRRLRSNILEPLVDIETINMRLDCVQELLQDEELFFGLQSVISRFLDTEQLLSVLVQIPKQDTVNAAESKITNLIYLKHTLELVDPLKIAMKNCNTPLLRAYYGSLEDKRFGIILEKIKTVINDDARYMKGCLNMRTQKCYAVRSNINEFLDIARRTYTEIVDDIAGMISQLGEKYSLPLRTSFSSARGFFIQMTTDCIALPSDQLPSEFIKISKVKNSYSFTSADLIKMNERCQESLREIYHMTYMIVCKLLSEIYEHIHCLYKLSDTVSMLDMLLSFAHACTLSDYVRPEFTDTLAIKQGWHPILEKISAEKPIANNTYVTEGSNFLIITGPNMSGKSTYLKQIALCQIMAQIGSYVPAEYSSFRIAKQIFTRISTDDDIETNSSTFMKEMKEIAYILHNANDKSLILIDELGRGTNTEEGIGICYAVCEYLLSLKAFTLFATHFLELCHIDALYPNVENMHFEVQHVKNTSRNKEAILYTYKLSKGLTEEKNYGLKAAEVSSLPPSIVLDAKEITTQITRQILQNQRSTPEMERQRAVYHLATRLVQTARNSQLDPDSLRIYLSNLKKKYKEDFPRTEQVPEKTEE
Experiment: GST fusion protein interaction assay
Assay type: binding
Conditions: GST fusion protein as bait
Method: 500 microliters taken from a 5 milliliter overnight starter culture of cells which expressed an hMSH2-, hMSH3-, hMSH5-, or hMSH6-pGEX-fusion protein with (or non-fused pGEX as a negative control) was inoculated into 50 milliliters of Luria broth which contained 50 micrograms per milliliter ampicillin, and this culture was grown until the optical density at 600 nanometers was about 0.5. Protein expression was induced by addition of 0.1 millimolar (final concentration) IPTG for 2 hours at 30° C. Cells were pelleted and resuspended in 750 microliters of phosphate buffered saline containing protease inhibitors. A 10 minute digestion on ice using 1 milligram per milliliter lysozyme was then performed. After the addition of 0.2% (v/v) Triton X-100 and 1 millimolar dithiothreitol (final concentrations), the lysate was snap-frozen in liquid nitrogen and thawed twice. DNaseI (200 units per milliliter; Boehringer Mannheim, Germany) digestion was performed using the thawed lysate for 30 minutes on ice, after which cell debris was removed by centrifugation at 14,000 rpm at 4° C. for 30 minutes in a benchtop microfuge. […]

- interaction with IVTT-hMSH4: significant interaction
B1: hMSH5: human MutS homolog, putative 834-amino-acid protein encoded by clone b29 (SEQ ID NO: 29) (protein)
chain: MASLGANPRRTPQGPRPGAASSGFPSPAPVPGPREAEEEEVEEEEELAEIHLCVLWNSGYLGIAYYDTSDSTIHFMPDAPDHESLKLLQRVLDEINPQSVVTSAKQDENMTRFLGKLASQEHREPKRPEIIFLPSVDFGLEISKQRLLSGNYSFIPDAMTATEKILFLSSIIPFDCLLTVRALGGLLKFLGRRRIGVELEDYNVSVPILGFKKFMLTHLVNIDQDTYSVLQIFKSESHPSVYKVASGLKEGLSLFGILNRCHCKWGEKLLRLWFTRPTHDLGELSSRLDVIQFFLLPQNLDMAQMLHRLLGHIKNVPLILKRMKLSHTKVSDWQVLYKTVYSALGLRDACRSLPQSIQLFRDIAQEFSDDLHHIASLIGKVVDFEGSLAENRFTVLPNIDPEIDEKKRRLMGLPSFLTEVARKELENLDSRIPSCSVIYIPLIGFLLSIPRLPSMVEASDFEINGLDFMFLSEEKLHYRSARTKELDALLGDLHCEIRDQETLLMYQLQCQVLARAAVLTRVLDLASRLDVLLALASAARDYGYSRPRYSPQVLGVRIQNGRHPLMELCARTFVPNSTECGGDKGRVKVITGPNSSGKSIYLKQVGLITFMALVGSFVPAEEAEIGAVDAIFTRIHSCESISLGLSTFMIDLNQVAKAVNNATAQSLVLIDEFGKGTNTVDGLALLAAVLRHWLARGPTCPHIFVATNFLSLVQLQLLPQGPLVQYLTMETCEDGNDLVFFYQVCEGVAKASHASHTAAQAGLPDKLVARGKEVSDLIRSGKPIKPVKDLLKKNQMENCQTLVDKFMKLDLEDPNLDLNVFMSQEVLPAATSIL
modifications: left off: a dimerising Fc or GST; large carriers; small tags and cut ends
